B1: 133R0201: 64R7 variant anti-Jagged antibody; heavy chain variable region SEQ ID NO:50, light chain variable region SEQ ID NO:21 (antibody, V domains shown)
VH: QVQLVESGGGVVQPGRSLRLSCAASGFTFSSYAMHWVRQAPGKGLEWVAAIYPDSSNKYYADSVKGRFTISRDNSKNTLYLQMNSLRAEDTAVYYCARDKYDIPDAFDIWGQGTLVTVS
VL: DIRMTQSPSSLSASVGDRVTITCRASQGISNDLAWYQQKPGKVPRLLIYATSTLQSGVPSRFSGSGSATDFTLTISSLQPEDVATYYCQQSYNAPITFGQGTRLEIK
modifications: 133R0201 Heavy chain variable region; 64R7 Light chain variable region
B2: 133R0203: 64R7 variant anti-Jagged antibody; heavy chain variable region SEQ ID NO:51, light chain variable region SEQ ID NO:21 (antibody, V domains shown)
VH: QVQLVESGGGVVQPGRSLRLSCAASGFTFSSYAMHWVRQAPGKGLEWVAAISPEASNKYYADSVKGRFTISRDNSKNTLYLQMNSLRAEDTAVYYCARDKYDIPDAFDIWGQGTLVTVS
VL: DIRMTQSPSSLSASVGDRVTITCRASQGISNDLAWYQQKPGKVPRLLIYATSTLQSGVPSRFSGSGSATDFTLTISSLQPEDVATYYCQQSYNAPITFGQGTRLEIK
modifications: 133R0203 Heavy chain variable region; 64R7 Light chain variable region
B3: 133R0205: 64R7 variant anti-Jagged antibody; heavy chain variable region SEQ ID NO:52, light chain variable region SEQ ID NO:21 (antibody, V domains shown)
VH: QVQLVESGGGVVQPGRSLRLSCAASGFTFSSYAMHWVRQAPGKGLEWVAAIYPASSNKYYADSVKGRFTISRDNSKNTLYLQMNSLRAEDTAVYYCARDKYDIPDAFDIWGQGTLVTVS
VL: DIRMTQSPSSLSASVGDRVTITCRASQGISNDLAWYQQKPGKVPRLLIYATSTLQSGVPSRFSGSGSATDFTLTISSLQPEDVATYYCQQSYNAPITFGQGTRLEIK
modifications: 133R0205 Heavy chain variable region; 64R7 Light chain variable region

Columns and labels:
[1] = tested on: PN17 pancreatic tumor cells; experiment: PN17 pancreatic tumor xenograft model; type: in vivo, NOD/SCID mice; details: antibody 15 mg/kg twice a week or gemcitabine 5 mg/kg once a week, intraperitoneally, FIG. 7
Description: PN17 pancreatic tumor cells were injected subcutaneously into the flanks of NOD/SCID mice. 10,000 cells were injected per animal. Mice were monitored weekly and tumors were allowed to grow until they were approximately 145 mm^3. The mice were randomized into four treatment groups (n=10 mice/group) and treated with either control antibody (LZ-1), anti-Jagged 64M51, gemcitabine or a combination of 64M51 and gemcitabine. Gemcitabine was administered intraperitoneally at a dose of 5 mg/kg once a week and antibodies were administered intraperitoneally at a dose of 15 mg/kg twice a week.

[2] = tested on: human Jagged1-induced Notch2 activation; experiment: Notch luciferase reporter assay, two cell population format; type: cell-based; details: Example 14; PC3 cells; antibody 50 to 0.2 μg/ml; FIG. 12B
Excerpt: (§1) The ability of Jagged antibodies to inhibit Jagged-induced Notch signaling was also investigated using a two cell population assay format. One population of human PC3 cells was transfected with an expression vector encoding a full-length Notch2 receptor as well as plasmids encoding a Notch-dependent firefly luciferase reporter construct (8×CBF luciferase) and a Renilla luciferase reporter (Promega, Madison Wis.) as an internal transfection control. A second population of human PC3 cells was transfected with an expression vector encoding a full-length cDNA for either hJagged1 or hJagged2. Aliquots of the two cell populations were mixed together and incubated overnight in the presence of 64M51, 64R7 or 64R1B antibodies that were serially diluted 1:4 from 40 to 0.039 μg/ml, luciferase levels were measured 18 hours later using a dual luciferase assay kit (Promega, Madison, Wis.) with firefly luciferase activity normalized to Renilla luciferase activity. Shown is a titration of 64M51, 64R1B and 64R7 antibodies in this assay.
(§2) The ability of Jagged antibodies 133R0201, 133R0203, 133R0205, 133R0207, 133R0208, 133R0209 and 133R0210 to inhibit Jagged-induced Notch signaling was investigated using a two cell population assay format as described above in Example 6. One population of human PC3 cells was transfected with an expression vector encoding a full-length Notch2 receptor as well as plasmids encoding a Notch-dependent firefly luciferase reporter construct (8×CBF luciferase) and a Renilla luciferase reporter (Promega, Madison Wis.) as an internal transfection control. A second population of human PC3 cells was transfected with an expression vector encoding a full-length cDNA for either hJagged1 or hJagged2. Aliquots of the two cell populations were mixed together and incubated overnight in the presence of antibodies 64R7, 133R0201, 133R0203, 133R0205, 133R0207, 133R0208, 133R0209 and 133R0210 that were serially diluted 1:3 from 50 to 0.2 μg/ml. Luciferase levels were measured 18 hours later using a dual luciferase assay kit (Promega, Madison, Wis.) with firefly luciferase activity normalized to Renilla luciferase activity. Shown in FIGS. 12A and 12B are titrations of the antibodies in this assay.

[3] = tested on: human Jagged2-induced Notch activation; experiment: as above; type: cell-based; details: Example 14; PC3 cells; antibody 50 to 0.2 μg/ml; FIG. 12A
Excerpt: as §1, §2

[4] = tested on: OMP-Lu45 cells; experiment: Lu45 lung tumor xenograft model (Example 16); type: in vivo, NOD/SCID mice; details: FIG. 14; for reduction of tumor growth, antibody in combination with taxol relative to taxol alone: antibody 15 mg/kg twice a week plus taxol 15 mg/kg once a week
Description: The anti-tumor activity of antibodies 64R7, 133R0201, 133R0203, 133R0205 and 133R206 was evaluated in the lung Lu45 tumor xenograft model. Dissociated OMP-Lu45 cells (50,000 per animal) were injected subcutaneously into 6-8 week old male NOD/SCID mice. Tumor growth was monitored weekly and tumor measurements were initiated once tumors were palpable. On day 41, mice with average tumor volumes of 132 mm^3 were randomized into 10 groups of 10 animals each. Animals were injected with control antibody, antibody 64R7, antibody 133R0201, antibody 133R0203, antibody 133R0205, antibody 133R0206 (all at 15 mg/kg), taxol (15 mg/kg), a combination of antibody 64R7 and taxol, a combination of antibody 133R0203 and taxol, or a combination of antibody 133R0205 and taxol. Administration of the antibodies and taxol was performed via injection into the intra-peritoneal cavity, once a week for taxol and twice a week for antibodies. Tumors were measured twice a week and tumor volume was determined using the formula ½(a×b^2); where a=length, and b=breadth. Data are expressed as mean and mean±S.E.M. Group means were compared using Student's two-tailed, unpaired t test.

[5] = tested on: OMP-Lu42 cells; experiment: Lu42 lung tumor xenograft model; type: in vivo, NOD/SCID mice; details: 15 mg/kg intraperitoneally twice a week, FIG. 13
Description: The anti-tumor activity of antibodies 64R7, 133R0203, and 133R0205 were evaluated in the lung Lu42 tumor xenograft model. Dissociated OMP-Lu42 cells (50,000 per animal) were injected subcutaneously into 6-8 week old male NOD/SCID mice. Tumor growth was monitored weekly and tumor measurements were initiated once tumors were palpable. On day 54, mice with average tumor volumes of 114 mm^3 were randomized into 4 groups of 10 animals each. Animals were injected with 15 mg/kg of either control antibody, antibody 64R7, antibody 133R0203, or antibody 133R0205. Administration of the antibodies was performed via injection into the intraperitoneal cavity, twice a week. Tumors were measured twice a week and tumor volume was determined using the formula ½(a×b^2); where a=length, and b=breadth. Data are expressed as mean and mean±S.E.M. Group means were compared using Student's two-tailed, unpaired t test.

| Molecule | tumor growth, single agent [1] | inhibition of human Jagged1-induced Notch activation, two cell population assay [2] | inhibition of human Jagged2-induced Notch activation, two cell population assay [3] | reduction in tumor growth, single agent compared to control antibody ([4]; 15 mg/kg twice a week) | reduction in tumor growth, single agent compared to control antibody [5] | reduction of tumor growth, antibody in combination with taxol relative to taxol alone [4] |
| --- | --- | --- | --- | --- | --- | --- |
| Nc1ccn([C@@H]2O[C@H](CO)[C@@H](O)C2(F)F)c(=O)n1 [gemcitabine, reference compound] | transient initial response | – | – | – | – | – |
| B1 | – | inhibitors | inhibitors | 24% | – | – |
| B2 | – | inhibitors | inhibitors | – | 28% | 36% |
| B3 | – | inhibitors | inhibitors | – | 33% | reduction of tumor growth |
